Data: US20220348651A1, “ENTPD2 ANTIBODIES, COMBINATION THERAPIES, AND METHODS OF USING THE ANTIBODIES AND COMBINATION THERAPIES” (Novartis AG, priority 2019, published 2022)
Numbering of substitutions follows the chain as printed.

Legend:
[1] = target: T1, ENTPD2 (Homo sapiens, UniProt Q9Y5L3); assay: Hybridoma mAb screen: cell-based assay for inhibition of ATP hydrolysis by ENTPD2; settings: hybridoma-derived mAbs
T1 sequence (Q9Y5L3 1-495): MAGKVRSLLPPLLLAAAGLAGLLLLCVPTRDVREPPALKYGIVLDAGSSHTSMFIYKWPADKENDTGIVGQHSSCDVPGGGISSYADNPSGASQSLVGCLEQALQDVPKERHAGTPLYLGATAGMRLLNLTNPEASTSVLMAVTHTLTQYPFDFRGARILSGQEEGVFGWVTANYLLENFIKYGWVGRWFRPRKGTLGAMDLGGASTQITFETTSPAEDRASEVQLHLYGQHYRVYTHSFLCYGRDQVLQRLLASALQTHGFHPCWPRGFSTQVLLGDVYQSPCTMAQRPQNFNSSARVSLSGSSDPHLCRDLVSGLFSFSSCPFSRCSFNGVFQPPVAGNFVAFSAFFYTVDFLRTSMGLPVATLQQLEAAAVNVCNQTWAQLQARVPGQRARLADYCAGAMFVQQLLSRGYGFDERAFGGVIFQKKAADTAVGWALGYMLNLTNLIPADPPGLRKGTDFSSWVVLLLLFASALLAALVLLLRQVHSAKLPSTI
From the text: Hybridoma-derived mAbs were screened in a cell-based assay for inhibition of ATP hydrolysis by ENTPD2.

[2] = target: T2, mouse ENTPD2 (Mus musculus, UniProt O55026); assay: Mouse ENTPD2 NIH/3T3 cell-based functional assay; settings: mouse ENTPD2 NIH/3T3 cells, 100 nM
T2 construct: expressed in transfected cells; host or cells: NIH/3T3 (retroviral transduction)
T2 sequence (O55026 1-495): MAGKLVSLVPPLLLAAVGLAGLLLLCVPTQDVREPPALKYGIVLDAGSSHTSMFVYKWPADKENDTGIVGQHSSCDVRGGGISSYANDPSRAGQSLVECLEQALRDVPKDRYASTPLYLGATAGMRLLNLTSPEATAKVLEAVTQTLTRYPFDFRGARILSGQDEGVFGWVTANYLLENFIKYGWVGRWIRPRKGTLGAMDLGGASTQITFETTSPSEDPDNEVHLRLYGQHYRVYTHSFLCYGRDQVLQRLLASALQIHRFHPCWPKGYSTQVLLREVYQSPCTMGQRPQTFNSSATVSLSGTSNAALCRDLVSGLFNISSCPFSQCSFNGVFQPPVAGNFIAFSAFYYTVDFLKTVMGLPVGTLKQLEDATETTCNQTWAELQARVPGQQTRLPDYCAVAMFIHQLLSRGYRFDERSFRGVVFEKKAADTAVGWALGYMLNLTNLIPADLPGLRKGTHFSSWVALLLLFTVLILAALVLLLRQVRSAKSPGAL
From the text: (§1) Biochemical and cell-based functional assays were developed in-house to understand functional impact of anti-ENTPD2 Abs against purified extracellular domain of ENTPD2 (residues 29-462), as well as against the fully intact protein in the context of the native cell-based conformation. ENTPD2 hydrolyzes ATP to ADP, which can subsequently be detected using the HTRF Transcreener ADP2 TR-FRET Red Assay (BellBrook Labs, Madison, Wis.) where ENTPD2-produced ADP would compete with the ADP Tracer for binding to the anti-ADP-Tb antibody. The resulting signal is inversely proportional to the concentration of ADP in the sample.
To establish cell-based functional assays, human/cyno/mouse ENTPD2-engineered NIH/3T3 cells or RKO (ATCC, Manassa Va.) colorectal cancer cells with endogenous ENTPD2 expression were plated overnight at 150, 200 and 250 cells per well for NIH/3T3 mouse, cyno and human ENTPD2 lines, respectively, or 1000 cells per well for RKO in 384-well tissue culture plate, in 30 μl per well (Perkin Elmer, Waltham, Mass.). The following day cells were pre-incubated with Anti-ENTPD2 Abs in dose response for 60 min at 37° C., 5% CO2 (10 μl of 5× antibody dose per well), and subsequently stimulated with a final concentration of 10 μM ATP (Teknova, Hollister, Calif.) for 20 minutes at room temperature (10 μl of 5× (50 μM) ATP per well). Reactions were quenched with 40 mM EDTA/40 mM EGTA, 25 μl per well, and 15 μl of quenched media was transferred to low volume Proxiplates (PerkinElmer, Waltham, Mass.) for ADP detection. ADP production was detected with the Transcreener ADP2 TR-FRET Red Assay (BellBrook Labs, Madison, Wis.) with a final concentration of 4 nM ADP2 antibody and 13.4 nM of ADP Tracer in wells (4× solution was prepared and 5 μL of “Detection Reagent Mix” was added to the quenched conditioned media). Plates were incubated with detection reagents for 1 hour at room temperature prior to reading plates in HTRF mode.
(§2) HTRF signal (Emission at 620 nm and 665 nm) was assessed in both assays using the Envision plate reader in HTRF mode (Perkin Elmer, Waltham, Mass.). HTRF ratio was determined using the following formula: HTRF ratio=R=Emission at 665 nm/Emission at 620 nm×10,000. Subsequently % Residual Activity and % Inhibition were determined as follows:
(§3) Where R0% is the HTRF ratio of the negative control (0% enzyme activity), and R100% is the HTRF ratio of the positive control (100% enzyme activity). Data were analyzed in Microsoft Excel and graphed using GraphPad's Prism 7.0 software and IC50 values were obtained using non-linear regression, log (agonist) vs. response-variable slope (four parameters) analysis.
Anti-ENTPD2 mAb13 was identified as a mouse ENTPD2 selective Ab (FACS EC50 3-4 nM) with no binding to human or cyno ENTPD2.

[3] = target: T3, recombinant human ENTPD2 (residues 29-462) (Homo sapiens, UniProt Q9Y5L3); assay: Biochemical human ENTPD2 functional assay (Transcreener ADP2 TR-FRET); settings: FIG. 15
T3 construct: residues 29-462 of human or cyno ENTPD2 were cloned into expression vector; GP67 signal peptide (N); made in house; host or cells: High Five (Trichoplusia ni) insect cells, baculovirus
T3 sequence (Q9Y5L3 29-462): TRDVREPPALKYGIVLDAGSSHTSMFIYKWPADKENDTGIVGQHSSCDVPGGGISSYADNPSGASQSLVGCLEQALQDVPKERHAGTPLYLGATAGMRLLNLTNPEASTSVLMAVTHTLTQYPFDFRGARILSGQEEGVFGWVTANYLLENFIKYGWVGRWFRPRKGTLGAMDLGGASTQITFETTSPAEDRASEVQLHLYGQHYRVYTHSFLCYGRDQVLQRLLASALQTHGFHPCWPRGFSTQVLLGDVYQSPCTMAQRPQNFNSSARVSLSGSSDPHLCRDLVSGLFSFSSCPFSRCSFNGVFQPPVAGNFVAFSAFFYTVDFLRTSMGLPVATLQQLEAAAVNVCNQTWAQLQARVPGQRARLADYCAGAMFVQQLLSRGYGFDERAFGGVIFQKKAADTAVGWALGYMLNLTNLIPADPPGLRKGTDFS
From the text: as §1
To evaluate activity of anti-ENTPD2 Abs in the ENTPD2 biochemical assay, anti-ENTPD2 Abs and recombinant ENTPD2 (residues 29-462) were diluted in reaction buffer (50 mM HEPES, pH 7.1, 10 mM MgCl2, 0.01% BSA) to the desired concentration. 4 μL per well of the ENTPD2 solution and 2 μL per well of the Anti-ENTPD2 Ab solution were transferred into a ProxiPlate (PerkinElmer, Waltham, Mass.) and incubated for 30 min at room temperature. Reaction was then initiated via addition of 2 μl of ATP (final assay concentration of 1 μM), and the sample was incubated for 25 min at room temperature. […]
as §2, §3

B1: mAb16: hybridoma-derived lead inhibitory anti-human ENTPD2 mAb; VH/VL DNA SEQ ID NO: 226/230 (antibody, V domains shown)
VH: DIQLQESGPGLVKPSQSLSLTCSVTGYSITSGYYWNWIRQFPGNKLEWMGYISYDGDNNYNPSLKNRISITRDTSKNQFFLKLSSVTTEDTATYYCAGGYYRYGLSYYYVMDYWGQGTSVTVSS
VL: DTVLTQSPASLAVSLGQRATISCKASQSVDYDGNSYMNWYQQKPGQPPKLLIYAASNLESGIPARFSGSGSGTDFTLNIHPVEEEDAATYYCQQSNEDPPTFGGGTKLEIK
- inhibition of ATP hydrolysis by ENTPD2 [1]: lead inhibitory mAbs

B2: mAb14: anti-mouse ENTPD2 antibody, T30 variant of mAb13; HC SEQ ID NO: 211, LC SEQ ID NO: 204 (antibody)
heavy: QVQLVQSGAELKQPGQSVKISCKASGYTFWHYGMNWVKQAPGQGLKWMGWINTDTGNPTYADDFKGRFVFSLDTSVSTAYLQISNLKNEDTATYYCVRYGTLYSGYGFFFDSWGQGTLVTVSSAKTTAPSVYPLAPVCGDTTGSSVTLGCLVKGYFPEPVTLTWNSGSLSSGVHTFPAVLQSDLYTLSSSVTVTSSTWPSQSITCNVAHPASSTKVDKKIEPRGPTIKPCPPCKCPAPNLLGGPSVFIFPPKIKDVLMISLSPIVTCVVVDVSEDDPDVQISWFVNNVEVHTAQTQTHREDYNSTLRVVSALPIQHQDWMSGKEFKCKVNNKDLPAPIERTISKPKGSVRAPQVYVLPPPEEEMTKKQVTLTCMVTDFMPEDIYVEWTNNGKTELNYKNTEPVLDSDGSYFMYSKLRVEKKNWVERNSYSCSVVHEGLHNHHTTKSFSRTPGK
light: DIMMTQSPSSLSVSAGEKATITCKSSQSLFNSNTNKNYLNWYLQKPGQSPKLLFYYASTRHTGVPDRFIGSGSGTDFTLTITSVQDEDLADYYCQQWYSYPWTFGPGTKLEIKRADAAPTVSIFPPSSEQLTSGGASVVCFLNNFYPKDINVKWKIDGSERQNGVLNSWTDQDSKDSTYSMSSTLTLTKDEYERHNSYTCEATHKTSTSPIVKSFNRNEC
- % Inhibition at 100 nM (±Std Err) [2]: 79 ± 2.2%

B3: mAb15: anti-mouse ENTPD2 antibody, T30 variant of mAb13; HC SEQ ID NO: 218, LC SEQ ID NO: 204 (antibody)
heavy: B2 heavy with W30H
light: B2 light
- % Inhibition at 100 nM (±Std Err) [2]: 76 ± 3.4%

B4: mAb17: hybridoma-derived lead inhibitory anti-human ENTPD2 mAb; VH/VL DNA SEQ ID NO: 234/238 (antibody, V domains shown)
VH: EVQLQQFGAELVKPGASVKISCKASGYTFTDYNMDWVKQSHGKSLEWIGDINPKYDISTYNQQFKGKATLTVDKSSSTAYMELRSLTSEDTAVYYCARRGFFLYYGINYYYFDVWGAGTTVTVSS
VL: QIVLTQSPAIMSASLGEEITLTCSASSSVSYIHWYQQKSGTSPTLLIYSTSNLASGVPSRFSGSGSGTFYSLTISSVEAEDAADYYCHQWSSYPWTFGGGTKLEIK
- inhibition of ATP hydrolysis by ENTPD2 [1]: lead inhibitory mAbs
- inhibition of the catalytic activity of recombinant human ENTPD2 [3]: potently inhibit

B5: mAb19: anti-human ENTPD2 antibody of Table 1; VH SEQ ID NO: 250, VL SEQ ID NO: 257 (antibody, V domains shown)
VH: B4 VH with A16T, K54N, S58T, Q63R, L103P, I107N, N108S
VL: B4 VL with A9T, I32M, T44K, S92N
- inhibition of the catalytic activity of recombinant human ENTPD2 [3]: potently inhibit

B6: mAb21: anti-human ENTPD2 antibody of Table 1; VH SEQ ID NO: 281, VL SEQ ID NO: 287 (antibody, V domains shown)
VH: EVQLQQSGPELVKPGASVKISCKTSGYTFTEYTMHWVKQSHGKSLEWIGGINPNNGITTYNQKFKGKATLTVDKSSSTAYMDLRSLTSEGSAVYYCARRGFPIYYYGTSLYYFDYWGQGTTLTVSS
VL: B4 VL with I32M, K38R, T44K, S49T
- inhibition of the catalytic activity of recombinant human ENTPD2 [3]: potently inhibit
